Results published in IntAct's records for PubMed 35512704.

B1: Speckle-type POZ protein (Homo sapiens), O43791 (parent)
chain: MSRVPSPPPPAEMSSGPVAESWCYTQIKVVKFSYMWTINNFSFCREEMGEVIKSSTFSSGANDKLKWCLRVNPKGLDEESKDYLSLYLLLVSCPKSEVRAKFKFSILNAKGEETKAMESQRAYRFVQGKDWGFKKFIRRDFLLDEANGLLPDDKLTLFCEVSVVQDSVNISGQNTMNMVKVPECRLADELGGLWENSRFTDCCLCVAGQEFQAHKAILAARSPVFSAMFEHEMEESKKNRVEINDVEPEVFKEMMCFIYTGKAPNLDKMADDLLAAADKYALERLKVMCEDALCSNLSVENAAEILILADLHSADQLKTQAVDFINYHASDVLETSGWKSMVVSHPHLVAEAYRSLASAQCPFLGPPRKRLKQS

Variants of: B1
Conditions: with brd4_human BRD4, O60885

| Variant | effect of a mutation on the interaction |
| --- | --- |
| MSRVPSPPPPAEMSSGPVAESWCYTQIKVVKFSYMWTINNFSFCREEMGEVIKSSTFSSGANDKLKWCLRVNPKGLDEESKDYLSLYLLLVSCPKSEVRAKFKFSILNAKGEETKAMESQRAYRFVQGKDWGLKKFIRRDFLLDEANGLLPDDKLTLFCEVSVVQDSVNISGQNTMNMVKVPECRLADELGGLWENSRFTDCCLCVAGQEFQAHKAILAARSPVFSAMFEHEMEESKKNRVEINDVEPEVFKEMMCFIYTGKAPNLDKMADDLLAAADKYALERLKVMCEDALCSNLSVENAAEILILADLHSADQLKTQAVDFINYHASDVLETSGWKSMVVSHPHLVAEAYRSLASAQCPFLGPPRKRLKQS [F133L] | disrupting interaction strength |

Variants of: B1
Conditions: with ncoa3_human NCOA3, Q9Y6Q9

| Variant | effect of a mutation on the interaction |
| --- | --- |
| MSRVPSPPPPAEMSSGPVAESWCYTQIKVVKFSYMWTINNFSFCREEMGEVIKSSTFSSGANDKLKWCLRVNPKGLDEESKDYLSLYLLLVSCPKSEVRAKFKFSILNAKGEETKAMESQRAYRFVQGKDWGLKKFIRRDFLLDEANGLLPDDKLTLFCEVSVVQDSVNISGQNTMNMVKVPECRLADELGGLWENSRFTDCCLCVAGQEFQAHKAILAARSPVFSAMFEHEMEESKKNRVEINDVEPEVFKEMMCFIYTGKAPNLDKMADDLLAAADKYALERLKVMCEDALCSNLSVENAAEILILADLHSADQLKTQAVDFINYHASDVLETSGWKSMVVSHPHLVAEAYRSLASAQCPFLGPPRKRLKQS [F133L] | disrupting interaction strength |

Variants of: B1
Conditions: with jun_human JUN

| Variant | effect of a mutation on the interaction |
| --- | --- |
| MSRVPSPPPPAEMSSGPVAESWCYTQIKVVKFSYMWTINNFSFCREEMGEVIKSSTFSSGANDKLKWCLRVNPKGLDEESKDYLSLYLLLVSCPKSEVRAKFKFSILNAKGEETKAMESQRAYRFVQGKDWGLKKFIRRDFLLDEANGLLPDDKLTLFCEVSVVQDSVNISGQNTMNMVKVPECRLADELGGLWENSRFTDCCLCVAGQEFQAHKAILAARSPVFSAMFEHEMEESKKNRVEINDVEPEVFKEMMCFIYTGKAPNLDKMADDLLAAADKYALERLKVMCEDALCSNLSVENAAEILILADLHSADQLKTQAVDFINYHASDVLETSGWKSMVVSHPHLVAEAYRSLASAQCPFLGPPRKRLKQS [F133L] | with no effect |

Variants of: B1
Conditions: with akt1_human AKT1, P31749

| Variant | effect of a mutation on the interaction |
| --- | --- |
| MSRVPSPPPPAEMSSGPVAESWCYTQIKVVKFSYMWTINNFSFCREEMGEVIKSSTFSSGANDKLKWCLRVNPKGLDEESKDYLSLYLLLVSCPKSEVRAKFKFSILNAKGEETKAMESQRAYRFVQGKDWGLKKFIRRDFLLDEANGLLPDDKLTLFCEVSVVQDSVNISGQNTMNMVKVPECRLADELGGLWENSRFTDCCLCVAGQEFQAHKAILAARSPVFSAMFEHEMEESKKNRVEINDVEPEVFKEMMCFIYTGKAPNLDKMADDLLAAADKYALERLKVMCEDALCSNLSVENAAEILILADLHSADQLKTQAVDFINYHASDVLETSGWKSMVVSHPHLVAEAYRSLASAQCPFLGPPRKRLKQS [F133L] | with no effect |

Variants of: B1
Conditions: with alk_human ALK

| Variant | effect of a mutation on the interaction |
| --- | --- |
| MSRVPSPPPPAEMSSGPVAESWCYTQIKVVKFSYMWTINNFSFCREEMGEVIKSSTFSSGANDKLKWCLRVNPKGLDEESKDYLSLYLLLVSCPKSEVRAKFKFSILNAKGEETKAMESQRAYRFVQGKDWGLKKFIRRDFLLDEANGLLPDDKLTLFCEVSVVQDSVNISGQNTMNMVKVPECRLADELGGLWENSRFTDCCLCVAGQEFQAHKAILAARSPVFSAMFEHEMEESKKNRVEINDVEPEVFKEMMCFIYTGKAPNLDKMADDLLAAADKYALERLKVMCEDALCSNLSVENAAEILILADLHSADQLKTQAVDFINYHASDVLETSGWKSMVVSHPHLVAEAYRSLASAQCPFLGPPRKRLKQS [F133L] | with no effect |

Variants of: B1
Conditions: with aph1a_human APH1A

| Variant | effect of a mutation on the interaction |
| --- | --- |
| MSRVPSPPPPAEMSSGPVAESWCYTQIKVVKFSYMWTINNFSFCREEMGEVIKSSTFSSGANDKLKWCLRVNPKGLDEESKDYLSLYLLLVSCPKSEVRAKFKFSILNAKGEETKAMESQRAYRFVQGKDWGLKKFIRRDFLLDEANGLLPDDKLTLFCEVSVVQDSVNISGQNTMNMVKVPECRLADELGGLWENSRFTDCCLCVAGQEFQAHKAILAARSPVFSAMFEHEMEESKKNRVEINDVEPEVFKEMMCFIYTGKAPNLDKMADDLLAAADKYALERLKVMCEDALCSNLSVENAAEILILADLHSADQLKTQAVDFINYHASDVLETSGWKSMVVSHPHLVAEAYRSLASAQCPFLGPPRKRLKQS [F133L] | with no effect |

Variants of: B1
Conditions: with arnt_human ARNT

| Variant | effect of a mutation on the interaction |
| --- | --- |
| MSRVPSPPPPAEMSSGPVAESWCYTQIKVVKFSYMWTINNFSFCREEMGEVIKSSTFSSGANDKLKWCLRVNPKGLDEESKDYLSLYLLLVSCPKSEVRAKFKFSILNAKGEETKAMESQRAYRFVQGKDWGLKKFIRRDFLLDEANGLLPDDKLTLFCEVSVVQDSVNISGQNTMNMVKVPECRLADELGGLWENSRFTDCCLCVAGQEFQAHKAILAARSPVFSAMFEHEMEESKKNRVEINDVEPEVFKEMMCFIYTGKAPNLDKMADDLLAAADKYALERLKVMCEDALCSNLSVENAAEILILADLHSADQLKTQAVDFINYHASDVLETSGWKSMVVSHPHLVAEAYRSLASAQCPFLGPPRKRLKQS [F133L] | with no effect |

Variants of: B1
Conditions: with arc1a_human ARPC1A

| Variant | effect of a mutation on the interaction |
| --- | --- |
| MSRVPSPPPPAEMSSGPVAESWCYTQIKVVKFSYMWTINNFSFCREEMGEVIKSSTFSSGANDKLKWCLRVNPKGLDEESKDYLSLYLLLVSCPKSEVRAKFKFSILNAKGEETKAMESQRAYRFVQGKDWGLKKFIRRDFLLDEANGLLPDDKLTLFCEVSVVQDSVNISGQNTMNMVKVPECRLADELGGLWENSRFTDCCLCVAGQEFQAHKAILAARSPVFSAMFEHEMEESKKNRVEINDVEPEVFKEMMCFIYTGKAPNLDKMADDLLAAADKYALERLKVMCEDALCSNLSVENAAEILILADLHSADQLKTQAVDFINYHASDVLETSGWKSMVVSHPHLVAEAYRSLASAQCPFLGPPRKRLKQS [F133L] | with no effect |

Variants of: B1
Conditions: with arrb2_human ARRB2, P32121

| Variant | effect of a mutation on the interaction |
| --- | --- |
| MSRVPSPPPPAEMSSGPVAESWCYTQIKVVKFSYMWTINNFSFCREEMGEVIKSSTFSSGANDKLKWCLRVNPKGLDEESKDYLSLYLLLVSCPKSEVRAKFKFSILNAKGEETKAMESQRAYRFVQGKDWGLKKFIRRDFLLDEANGLLPDDKLTLFCEVSVVQDSVNISGQNTMNMVKVPECRLADELGGLWENSRFTDCCLCVAGQEFQAHKAILAARSPVFSAMFEHEMEESKKNRVEINDVEPEVFKEMMCFIYTGKAPNLDKMADDLLAAADKYALERLKVMCEDALCSNLSVENAAEILILADLHSADQLKTQAVDFINYHASDVLETSGWKSMVVSHPHLVAEAYRSLASAQCPFLGPPRKRLKQS [F133L] | with no effect |

Variants of: B1
Conditions: with bakor_human ATG14, Q6ZNE5

| Variant | effect of a mutation on the interaction |
| --- | --- |
| MSRVPSPPPPAEMSSGPVAESWCYTQIKVVKFSYMWTINNFSFCREEMGEVIKSSTFSSGANDKLKWCLRVNPKGLDEESKDYLSLYLLLVSCPKSEVRAKFKFSILNAKGEETKAMESQRAYRFVQGKDWGLKKFIRRDFLLDEANGLLPDDKLTLFCEVSVVQDSVNISGQNTMNMVKVPECRLADELGGLWENSRFTDCCLCVAGQEFQAHKAILAARSPVFSAMFEHEMEESKKNRVEINDVEPEVFKEMMCFIYTGKAPNLDKMADDLLAAADKYALERLKVMCEDALCSNLSVENAAEILILADLHSADQLKTQAVDFINYHASDVLETSGWKSMVVSHPHLVAEAYRSLASAQCPFLGPPRKRLKQS [F133L] | with no effect |

Variants of: B1
Conditions: with atm_human ATM

| Variant | effect of a mutation on the interaction |
| --- | --- |
| MSRVPSPPPPAEMSSGPVAESWCYTQIKVVKFSYMWTINNFSFCREEMGEVIKSSTFSSGANDKLKWCLRVNPKGLDEESKDYLSLYLLLVSCPKSEVRAKFKFSILNAKGEETKAMESQRAYRFVQGKDWGLKKFIRRDFLLDEANGLLPDDKLTLFCEVSVVQDSVNISGQNTMNMVKVPECRLADELGGLWENSRFTDCCLCVAGQEFQAHKAILAARSPVFSAMFEHEMEESKKNRVEINDVEPEVFKEMMCFIYTGKAPNLDKMADDLLAAADKYALERLKVMCEDALCSNLSVENAAEILILADLHSADQLKTQAVDFINYHASDVLETSGWKSMVVSHPHLVAEAYRSLASAQCPFLGPPRKRLKQS [F133L] | with no effect |

Variants of: B1
Conditions: with atpb_human ATP5F1B

| Variant | effect of a mutation on the interaction |
| --- | --- |
| MSRVPSPPPPAEMSSGPVAESWCYTQIKVVKFSYMWTINNFSFCREEMGEVIKSSTFSSGANDKLKWCLRVNPKGLDEESKDYLSLYLLLVSCPKSEVRAKFKFSILNAKGEETKAMESQRAYRFVQGKDWGLKKFIRRDFLLDEANGLLPDDKLTLFCEVSVVQDSVNISGQNTMNMVKVPECRLADELGGLWENSRFTDCCLCVAGQEFQAHKAILAARSPVFSAMFEHEMEESKKNRVEINDVEPEVFKEMMCFIYTGKAPNLDKMADDLLAAADKYALERLKVMCEDALCSNLSVENAAEILILADLHSADQLKTQAVDFINYHASDVLETSGWKSMVVSHPHLVAEAYRSLASAQCPFLGPPRKRLKQS [F133L] | with no effect |

Variants of: B1
Conditions: with aurkb_human AURKB

| Variant | effect of a mutation on the interaction |
| --- | --- |
| MSRVPSPPPPAEMSSGPVAESWCYTQIKVVKFSYMWTINNFSFCREEMGEVIKSSTFSSGANDKLKWCLRVNPKGLDEESKDYLSLYLLLVSCPKSEVRAKFKFSILNAKGEETKAMESQRAYRFVQGKDWGLKKFIRRDFLLDEANGLLPDDKLTLFCEVSVVQDSVNISGQNTMNMVKVPECRLADELGGLWENSRFTDCCLCVAGQEFQAHKAILAARSPVFSAMFEHEMEESKKNRVEINDVEPEVFKEMMCFIYTGKAPNLDKMADDLLAAADKYALERLKVMCEDALCSNLSVENAAEILILADLHSADQLKTQAVDFINYHASDVLETSGWKSMVVSHPHLVAEAYRSLASAQCPFLGPPRKRLKQS [F133L] | with no effect |

Variants of: B1
Conditions: with axin2_human AXIN2, Q9Y2T1

| Variant | effect of a mutation on the interaction |
| --- | --- |
| MSRVPSPPPPAEMSSGPVAESWCYTQIKVVKFSYMWTINNFSFCREEMGEVIKSSTFSSGANDKLKWCLRVNPKGLDEESKDYLSLYLLLVSCPKSEVRAKFKFSILNAKGEETKAMESQRAYRFVQGKDWGLKKFIRRDFLLDEANGLLPDDKLTLFCEVSVVQDSVNISGQNTMNMVKVPECRLADELGGLWENSRFTDCCLCVAGQEFQAHKAILAARSPVFSAMFEHEMEESKKNRVEINDVEPEVFKEMMCFIYTGKAPNLDKMADDLLAAADKYALERLKVMCEDALCSNLSVENAAEILILADLHSADQLKTQAVDFINYHASDVLETSGWKSMVVSHPHLVAEAYRSLASAQCPFLGPPRKRLKQS [F133L] | with no effect |

Variants of: B1
Conditions: with za2g_human AZGP1, P25311

| Variant | effect of a mutation on the interaction |
| --- | --- |
| MSRVPSPPPPAEMSSGPVAESWCYTQIKVVKFSYMWTINNFSFCREEMGEVIKSSTFSSGANDKLKWCLRVNPKGLDEESKDYLSLYLLLVSCPKSEVRAKFKFSILNAKGEETKAMESQRAYRFVQGKDWGLKKFIRRDFLLDEANGLLPDDKLTLFCEVSVVQDSVNISGQNTMNMVKVPECRLADELGGLWENSRFTDCCLCVAGQEFQAHKAILAARSPVFSAMFEHEMEESKKNRVEINDVEPEVFKEMMCFIYTGKAPNLDKMADDLLAAADKYALERLKVMCEDALCSNLSVENAAEILILADLHSADQLKTQAVDFINYHASDVLETSGWKSMVVSHPHLVAEAYRSLASAQCPFLGPPRKRLKQS [F133L] | with no effect |
